Data reported in publication PMC6778125, “Cryo-EM structure of the bacterial Ton motor subcomplex ExbB–ExbD provides information on structure and stoichiometry” (Communications Biology, 2019).

B1: ExbB (natural protein, UniProt P0ABU7 1-244, looked up)
chain: MGNNLMQTDLSVWGMYQHADIVVKCVMIGLILASVVTWAIFFSKSVEFFNQKRRLKREQQLLAEARSLNQANDIAADFGSKSLSLHLLNEAQNELELSEGSDDNEGIKERTSFRLERRVAAVGRQMGRGNGYLATIGAISPFVGLFGTVWGIMNSFIGIAQTQTTNLAVVAPGIAEALLATAIGLVAAIPAVVIYNVFARQIGGFKAMLGDVAAQVLLLQSRDLDLEASAAAHPVRVAQKLRAG
notes: ExbB, inner membrane subunit of the Ton complex, 244 residues, three TM helices; native exbB, no tag; also called native ExbB; ExbB pentamer; source: reconstituted in lipid nanodiscs (MSP1E3D1, E. coli polar lipid extract)

Tests used:
ExbD = ExbD (UniProt P0ABV2); test: cryo-EM structure; single particle cryo-EM of the co-expressed, purified full-length ExbB-ExbD complex in lipid nanodiscs (MSP1E3D1, E. coli polar lipid extract); Tris 25 mM pH7.4 NaCl 200 mM; C1 symmetry, 3.3 Å
[1] = biological target: the molecule itself; test: as above

| Molecule | stoichiometry N (ExbD) | stoichiometry N [1] |
| --- | --- | --- |
| ExbD (from UniProt P0ABV2 1-141) (natural protein) | 2 | – |
| B1 | – | 5 |
